The Kd is the equilibrium constant for the complex coming apart. Usually koff stands for the first-order rate constant of dissociation. The term kon denotes the rate constant with which the complex forms.

The target in experiment [1] is T1, Thermus thermophilus SlyD-IGF-1 (74-90) chimeric polypeptide.
T1 sequence: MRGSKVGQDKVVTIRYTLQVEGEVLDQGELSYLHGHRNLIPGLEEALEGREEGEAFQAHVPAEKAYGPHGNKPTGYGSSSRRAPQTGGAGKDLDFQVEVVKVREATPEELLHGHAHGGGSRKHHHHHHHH
The experiment in a line: ELISA, undiluted culture supernatant. For orientation: In an ELISA, binding on a coated surface is turned into a signal by an enzyme label.

For experiment [2], the target named is recombinant native human IGF-1 (human) (UniProt P05019). The experiment in a line: ELISA, undiluted culture supernatant.
The target in experiment [3] is T2, recombinant wild-type Thermus thermophilus SlyD (His6 tagged control) (Thermus thermophilus).
T2 sequence: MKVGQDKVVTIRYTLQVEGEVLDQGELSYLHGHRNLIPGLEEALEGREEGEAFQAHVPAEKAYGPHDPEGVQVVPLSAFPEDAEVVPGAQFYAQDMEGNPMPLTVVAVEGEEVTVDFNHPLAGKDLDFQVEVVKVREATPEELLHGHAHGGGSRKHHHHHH
Briefly: ELISA, undiluted culture supernatant.

Experiment [4] addresses T1, Thermus thermophilus SlyD-IGF-1 (74-90) chimeric polypeptide. The experiment in a line: SPR at 25 °C, antibody captured, antigen in solution.
Experiment [5] concerns the target recombinant native human IGF-1 (human) (UniProt P05019). Described as above.
Experiment [6] shares this target. Briefly: SPR at 37 °C, antibody captured, analyte in solution.
The target of experiment [7] is T1, Thermus thermophilus SlyD-IGF-1 (74-90) chimeric polypeptide. The description is as above.
Experiment [8] addresses recombinant native human IGF-1 (human) (UniProt P05019). The description is as above. This is another data set of the same source.

B1: monoclonal antibody M-10.7.9 (antibody, from a related filing, V domains shown)
VH: QVQLQQSGAELVRPGSSVKISCKASGYAFSSYWMNWVKQRPGQGLEWIGQIYPGDGDTNHNGKFKGKATLTADKSSSTVYMQLSSLTSEDSAVYFCARSGDYYGKDYWGQGTTLTVSS
VL: DIVLTQTPPSLPVNMGQKATISYKATKSLLNTDGYTYMHWNQQKPGQPPKLLIYLVSNRESGVPDRFSGSGSGTDFTLNINTVEEEDAATYYCHHSNELPHTFGAGTKLEIK
As to B1, the results for the reactivity in experiment [1], in experiment [2] and in experiment [3] were 1900 mE, 2110 mE and 36 mE, respectively. Also, the Kd is 2.4 nM in experiment [4], 1.6 nM in experiment [5] and 4.5 nM in experiment [6]. In addition, the MR in experiment [4] was 1.8; in experiment [5], 1.7. Besides, the koff in experiment [4] amounted to 0.00069 s⁻¹; in experiment [5], 0.0015 s⁻¹; in experiment [6] it was 0.006 s⁻¹; in experiment [7], 1e-05 s⁻¹; in experiment [8], 1e-05 s⁻¹. The kon worked out at 290000 M⁻¹ s⁻¹ in experiment [4], 920000 M⁻¹ s⁻¹ in experiment [5] and 1.3e+06 M⁻¹ s⁻¹ in experiment [6]. Besides, the t/2-diss in experiment [4] amounted to 17 min; in experiment [5], 8 min; in experiment [6], 2 min; in experiment [7], 1160 min; in experiment [8], 1160 min. Moreover, the Ka in experiment [6] worked out at 2.2e+08 M⁻¹.

B2: monoclonal antibody M-11.11.17 (antibody, from a related filing, V domains shown)
VH: QVQLQQSGAELVRPGSSVKISCKASGYAFSNLWMNWVKQRPGQGLEWIGQIYPGDGDTNYYGDFKGKATLTADSSSSTAYMQLSRLTSEDSAVYFCARIGYYGMDYWGQGTSVTVSS
VL: DVVLTQTPLSLPVNIGDEASISCKSTKSLLSSDGLTYLDWYLQKPGQSPQVLIYLVSNRFSGVPDRFSGSGSGTDFTLKISRVEAEDLGVYYCFQSNYLPTFGAGTKLELK
Turning to B2, the reactivity in experiment [1] turned out to be 2150 mE; in experiment [2], 2430 mE; in experiment [3], 32 mE. Also, the dissociation constant (Kd) in experiment [4] was 0.01 nM; in experiment [5], 0.01 nM; in experiment [6], 0.046 nM. The MR in experiment [4] and in experiment [5] was 2 throughout. Also, the koff in experiment [4] turned out to be 1e-05 s⁻¹; in experiment [5], 2.1e-05 s⁻¹; in experiment [6], 0.00014 s⁻¹; in experiment [7], 1e-05 s⁻¹; in experiment [8] it was 1e-05 s⁻¹. Also, the kon in experiment [4] was determined as 710000 M⁻¹ s⁻¹; in experiment [5], 2e+06 M⁻¹ s⁻¹; in experiment [6], 3.1e+06 M⁻¹ s⁻¹. Also, the t/2-diss worked out at 1110 min in experiment [4]; 560 min in experiment [5]; 81 min in experiment [6]; 1160 min in experiment [7]; 1160 min in experiment [8]. Moreover, in experiment [6], the Ka amounted to 2.2e+10 M⁻¹.

The values above are taken from patent US20260193638A1.
